Legend:
[1] = target: 55S mitoribosome (re-associated);mtIF2;mtIF3 (Homo sapiens (HEK293S TetR GnTI-);Homo sapiens;Homo sapiens) (UniProt P46199+Q9H2K0); test: sucrose gradient co-sedimentation, Cy3 fluorescence; conditions: + E. coli fMet-tRNAfMet; 200 nM 55S or 28S, 240 nM mtIF2, 240 nM mtIF3, 240 nM fMet-tRNAfMet, 400 nM mRNA; 37 C 30 min (then ice 15 min for mRNA binding); filter wash with 20 mM Mg2+ …
[2] = target: 55S mitoribosome, subunits crosslinked;mtIF2 (Homo sapiens (HEK293S TetR GnTI-);Homo sapiens) (UniProt P46199); test: as above; conditions: + E. coli fMet-tRNAfMet; no mtIF3; 200 nM 55S or 28S, 240 nM mtIF2, 240 nM mtIF3, 240 nM fMet-tRNAfMet, 400 nM mRNA; 37 C 30 min (then ice 15 min for mRNA binding); filter wash with 20 mM Mg2+ …
[3] = target: 55S mitoribosome (crude);mtIF2;mtIF3 (bovine (liver);Homo sapiens;Homo sapiens) (UniProt P46199+Q9H2K0); test: co-sedimentation; conditions: 200 nM 55S or 28S, 240 nM mtIF2, 240 nM mtIF3, 240 nM fMet-tRNAfMet, 400 nM mRNA, 37 C 30 min (then ice 15 min for mRNA binding), filter wash with 20 mM Mg2+ …

Sequence of UniProt P46199 (P46199 whole entry, looked up, tested part not stated): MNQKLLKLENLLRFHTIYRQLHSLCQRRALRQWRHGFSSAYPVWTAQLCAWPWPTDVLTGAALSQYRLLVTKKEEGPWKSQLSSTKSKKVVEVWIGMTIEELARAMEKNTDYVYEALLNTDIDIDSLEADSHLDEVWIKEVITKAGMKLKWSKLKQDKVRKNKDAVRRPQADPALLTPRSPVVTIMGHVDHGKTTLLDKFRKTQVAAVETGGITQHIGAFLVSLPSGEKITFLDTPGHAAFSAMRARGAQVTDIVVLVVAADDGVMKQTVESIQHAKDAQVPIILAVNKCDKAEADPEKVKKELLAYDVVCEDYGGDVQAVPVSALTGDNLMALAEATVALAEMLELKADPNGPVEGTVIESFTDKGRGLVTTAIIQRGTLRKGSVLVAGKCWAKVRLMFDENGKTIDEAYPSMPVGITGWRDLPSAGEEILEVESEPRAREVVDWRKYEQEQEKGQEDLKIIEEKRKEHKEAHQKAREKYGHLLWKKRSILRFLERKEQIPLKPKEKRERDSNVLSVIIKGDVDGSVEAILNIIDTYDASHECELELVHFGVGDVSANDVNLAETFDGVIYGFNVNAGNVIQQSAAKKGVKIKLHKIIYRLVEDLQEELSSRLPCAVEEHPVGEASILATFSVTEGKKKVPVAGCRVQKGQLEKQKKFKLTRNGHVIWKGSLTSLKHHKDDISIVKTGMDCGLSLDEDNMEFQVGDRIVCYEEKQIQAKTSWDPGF

AUGGCACAUGCAGCGCAAGUAGGUCUACAA [MTCO2 mRNA first 30 nt]
binding signal (% of 55S with mRNA bound) [1]: 50 | binding signal (% of 55S with mRNA bound) [2]: 25

Phe-tRNAPhe
binding signal (% of 55S with [3H]-Phe-tRNAPhe) ([3]; + EF-Tu, 30-nt leaderless mRNA S2, fMet-tRNAfMet): 22

fMet-tRNAfMet (35S)
binding signal (% of 55S with [35S]-fMet-tRNAfMet) ([3]; + 30-nt leaderless mRNA S2, EF-Tu, Phe-tRNAPhe): 27

Reference: paper PMC9881170
